T1: J protein (bacteriophage, UniProt P0DXX7)
T1 chain: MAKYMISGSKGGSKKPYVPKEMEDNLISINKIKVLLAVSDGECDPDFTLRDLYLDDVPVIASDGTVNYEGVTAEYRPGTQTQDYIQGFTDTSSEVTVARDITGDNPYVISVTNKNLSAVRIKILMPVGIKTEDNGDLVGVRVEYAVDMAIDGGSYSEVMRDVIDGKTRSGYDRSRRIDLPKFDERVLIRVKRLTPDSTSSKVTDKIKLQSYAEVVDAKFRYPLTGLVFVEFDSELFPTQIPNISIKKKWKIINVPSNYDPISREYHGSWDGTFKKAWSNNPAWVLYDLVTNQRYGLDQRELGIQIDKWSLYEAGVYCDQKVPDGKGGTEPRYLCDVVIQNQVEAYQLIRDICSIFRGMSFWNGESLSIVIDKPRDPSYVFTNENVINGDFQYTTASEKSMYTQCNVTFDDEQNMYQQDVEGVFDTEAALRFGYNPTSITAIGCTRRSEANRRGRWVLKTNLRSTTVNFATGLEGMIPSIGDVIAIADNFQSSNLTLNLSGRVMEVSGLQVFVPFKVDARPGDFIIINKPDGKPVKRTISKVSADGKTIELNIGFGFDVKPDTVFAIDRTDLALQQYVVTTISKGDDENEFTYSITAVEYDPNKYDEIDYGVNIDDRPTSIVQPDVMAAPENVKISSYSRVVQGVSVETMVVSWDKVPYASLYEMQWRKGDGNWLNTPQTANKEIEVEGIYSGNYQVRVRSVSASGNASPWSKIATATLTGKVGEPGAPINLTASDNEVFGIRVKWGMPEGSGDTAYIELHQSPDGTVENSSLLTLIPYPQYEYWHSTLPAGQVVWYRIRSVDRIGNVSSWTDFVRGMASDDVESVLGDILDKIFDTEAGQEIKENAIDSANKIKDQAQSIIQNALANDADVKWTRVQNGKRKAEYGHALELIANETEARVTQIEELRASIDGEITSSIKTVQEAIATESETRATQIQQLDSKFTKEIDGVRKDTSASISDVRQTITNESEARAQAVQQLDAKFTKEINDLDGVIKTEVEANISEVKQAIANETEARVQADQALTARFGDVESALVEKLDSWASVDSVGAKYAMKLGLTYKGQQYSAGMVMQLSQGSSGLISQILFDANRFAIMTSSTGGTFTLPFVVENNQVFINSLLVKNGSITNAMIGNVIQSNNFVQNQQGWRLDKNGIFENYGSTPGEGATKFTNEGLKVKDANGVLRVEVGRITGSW

B1: BtuB (protein)
chain: QDTSPDTLVVTANRFQQPRSAVLAPVTIVTRQDIERWQSTSVNDVLRRLPGVDIAQSGGAGQNSSIFIRGTNSSHVLVLIDGVRLNLAGVSGSADLSQFPVSLVQRIEYIRGPRSAIYGSDAIGGVVNIITTRDNPGTELTAGWGSNSYQNYDISTQQQLGENTRATLIGDYEYTKGFDVVAKGGTGMQAQPDRDGFLSKTLYGALEHTFSDRWSGFVRGYGYDNRTDYDAYYSPGSPLIDTRKLYSQSWDAGLRFNGERIQSQLVSSYSHSKDYNYDPHYGRYDTSATLDEMKQYNVQWTNSVVVGHGNVGAGVDWQKQTTTPGTGYVPEGYDQRNTGVYLTGLQQLGDFTLEAAARSDDNSQFGRHGTWQTSAGWEFIEGYRFIASYGTSYKAPNLGQLYGYYGNPNLNPEKSKQWEGAFEGLTAGVSWRISGYRNDINDMIDYDDHLQKYYNEGKARIKGIEATANFDTGPLTHTVSYDYVDARNAITDTPLPRRSKQMAKYQLDWDVYDFDWGVTYQYLGSRYDSDYSAYPYRTVKMGGVSLWDLTVAYPVTSHLTVRGKIANLFDKDYETVYGYQTAGREYTLSGSYTF
B2: OmpX (protein)
chain: ATSTVTGGYAQSDAQGQMNKMGGFNLKYRYEEDNSPLGVIGSFTYTEKSRTASSGDYNKNQYYGITAGPAYRINDWASIYGVVGVGYGKFQTTEYPTYKHDTSDYGFSYGAGLQFNPMENVALDFSYEQSRIRSVDVGTWIAGVGYRF
B3: OmpX fused to TF and His tag (receptor)
chain: MKKIACLSALAAVLAFSAGTAVAATSTVTGGYAQSDAQGVANKMSGFNLKYRYEQDDNPLGVIGSFTYTEKDRTNGAGDYNKGQYYGITAGPAYRLNDWASIYGVVGVGYGKFQTTDYPTYKHDTSDYGFSYGAGLQFNPMENVALDFSYEQSRIRSVDVGTWIAGVGYRF

Tests used:
J protein = target: T1, J protein; assay: BLI
[1] = target: Gifsy-1 central tail tip J protein with Flag tag (phage Gifsy-1 of Salmonella Typhimurium); assay: BLI

Binder | Kd (J protein) [nM] | koff [1] [s⁻¹]
B1 | 0.00597 | 
B2 | 70 | 
B3 |  | 0.000275
